Each block holds one substance with its values, some of them ahead of it.
How the values were obtained:
Sth1BD (S. cerevisiae) = Sth1BD (S. cerevisiae) (UniProt P32597); assay: ITC; MicroCal ITC200, 20 °C, 25 mM Tris-HCl pH 8.0, 150 mM NaCl; peptides at 2.0 mM in the syringe titrated into reader domain at 0.1-0.2 mM in the cell; one-binding-site model
[1] = target: H3K14ac peptide (Saccharomyces cerevisiae) (UniProt P61830); details: cited from earlier work
[2] = target: H3K9ac peptide (Saccharomyces cerevisiae) (UniProt P61830); details: cited from earlier work
[3] = target: H3K9cr peptide (Saccharomyces cerevisiae) (UniProt P61830); details: cited from earlier work

Chain of Taf14 YEATS (P35189 1-137): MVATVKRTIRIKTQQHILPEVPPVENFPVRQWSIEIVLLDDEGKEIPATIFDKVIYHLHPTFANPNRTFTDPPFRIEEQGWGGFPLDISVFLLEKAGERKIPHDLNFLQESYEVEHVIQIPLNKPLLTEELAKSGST
Chain of Sth1BD (S. cerevisiae) (P32597 1248-1359): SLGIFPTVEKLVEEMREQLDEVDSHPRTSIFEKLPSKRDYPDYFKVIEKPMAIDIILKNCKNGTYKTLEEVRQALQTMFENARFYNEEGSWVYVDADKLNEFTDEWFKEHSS
Chain of Sth1 Bromodomain (P32597 1254-1359): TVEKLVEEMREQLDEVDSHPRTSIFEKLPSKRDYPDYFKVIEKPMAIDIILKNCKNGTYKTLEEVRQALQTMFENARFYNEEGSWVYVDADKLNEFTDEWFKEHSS

Kd (Sth1BD (S. cerevisiae)): 89 µM
Substance: H3K14bz peptide

Substance: Sth1 Bromodomain (from UniProt P32597)
Kd [1]: 16 µM

Substance: Taf14 YEATS (from UniProt P35189)
Kd [2]: 334 µM
Kd [3]: 75 µM

Reference: article PMC8927147, “Global profiling of regulatory elements in the histone benzoylation pathway” (Nature Communications, 2022)
